Data: article PMC9190237 (Biochemistry, 2022)
Where no end group is shown, it is not given here. FAM = fluorescein

B1: Unmodified H3^(FAM) peptide (ARTKQTARKSTGG{K-FAM}) (peptide)
peptide: ARTKQTARKSTGGK(FAM)

Experiments:
UHRF1^PHD = biological target: T1, UHRF1^PHD (Homo sapiens, UniProt Q96T88); test: Intrinsic tryptophan; type: binding; conditions: 5 μM peptide, 1 μM UHRF1^PHD
T1 sequence (Q96T88 298-366): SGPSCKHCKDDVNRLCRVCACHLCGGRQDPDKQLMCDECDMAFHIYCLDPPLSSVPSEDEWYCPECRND

[1] = biological target: UHRF1^PHD (as used for tryptophan fluorescence) (human (by the printed accession)); test: intrinsic tryptophan fluorescence quenching
[2] = biological target: T2, UHRF1^TTD-PHD (His-tagged TTD-PHD domains of UHRF1; residues 133-366) (human (by the printed accession), UniProt Q96T88-1 133-366); test: fluorescence polarisation
T2 sequence (looked up): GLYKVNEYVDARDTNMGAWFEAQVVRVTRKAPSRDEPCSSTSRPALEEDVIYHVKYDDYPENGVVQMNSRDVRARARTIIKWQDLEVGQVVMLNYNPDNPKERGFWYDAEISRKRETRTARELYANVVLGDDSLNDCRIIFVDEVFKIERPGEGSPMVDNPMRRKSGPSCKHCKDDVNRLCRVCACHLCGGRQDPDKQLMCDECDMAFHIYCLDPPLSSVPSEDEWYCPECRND

[3] = biological target: T3, Full-length UHRF1 (N-terminal 6xHis tag) (human (by the printed accession), UniProt Q96T88-1 1-793); test: fluorescence polarisation
T3 sequence (looked up): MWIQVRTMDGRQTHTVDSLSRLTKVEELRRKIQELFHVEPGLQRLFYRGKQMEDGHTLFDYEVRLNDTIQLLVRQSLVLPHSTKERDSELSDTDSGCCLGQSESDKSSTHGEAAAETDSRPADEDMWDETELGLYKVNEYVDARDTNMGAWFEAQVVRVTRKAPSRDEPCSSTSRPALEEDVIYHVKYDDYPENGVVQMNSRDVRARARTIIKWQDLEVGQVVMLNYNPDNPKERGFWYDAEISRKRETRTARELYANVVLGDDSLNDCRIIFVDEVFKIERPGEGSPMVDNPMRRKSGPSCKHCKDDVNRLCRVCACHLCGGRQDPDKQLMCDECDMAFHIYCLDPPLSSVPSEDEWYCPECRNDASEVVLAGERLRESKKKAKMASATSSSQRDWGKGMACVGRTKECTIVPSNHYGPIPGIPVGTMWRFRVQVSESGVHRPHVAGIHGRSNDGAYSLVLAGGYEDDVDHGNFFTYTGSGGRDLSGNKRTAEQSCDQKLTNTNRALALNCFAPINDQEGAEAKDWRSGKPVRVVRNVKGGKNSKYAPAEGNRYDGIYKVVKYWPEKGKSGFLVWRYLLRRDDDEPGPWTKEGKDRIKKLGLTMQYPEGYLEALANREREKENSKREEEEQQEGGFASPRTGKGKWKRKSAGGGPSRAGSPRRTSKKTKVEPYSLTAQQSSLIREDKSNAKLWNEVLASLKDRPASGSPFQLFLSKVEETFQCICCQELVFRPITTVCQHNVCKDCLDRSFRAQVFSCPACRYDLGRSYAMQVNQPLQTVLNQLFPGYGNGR

[4] = biological target: T4, UHRF1^TTD (TTD construct alone; residues 127-285) (human (by the printed accession), UniProt Q96T88-1 127-285); test: fluorescence polarisation
T4 sequence (looked up): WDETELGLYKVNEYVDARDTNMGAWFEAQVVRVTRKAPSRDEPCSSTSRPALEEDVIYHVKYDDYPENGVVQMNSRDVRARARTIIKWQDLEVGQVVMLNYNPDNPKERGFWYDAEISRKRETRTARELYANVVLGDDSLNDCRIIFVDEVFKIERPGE

[5] = biological target: T2, UHRF1^TTD-PHD (His-tagged TTD-PHD …); test: fluorescence polarisation; remark: listed apart in the source
[6] = biological target: T5, GST-UHRF1^PHD (residues 298-366) (human (by the printed accession), UniProt Q96T88-1 298-366); test: fluorescence polarisation
T5 sequence (looked up): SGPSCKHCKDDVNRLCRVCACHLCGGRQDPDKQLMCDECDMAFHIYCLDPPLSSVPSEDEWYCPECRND

[7] = biological target: B1; test: fluorescence polarisation
[8] = biological target: T2, UHRF1^TTD-PHD (His-tagged TTD-PHD …); test: AlphaScreen or HTRF

ARTKQTAR{K-me3}STGG{K-FAM} [H3K9me3^(FAM)]
W358 tryptophan fluorescence quenching of UHRF1^PHD (UHRF1^PHD): ~ 50%

H3K9me3^(FAM) peptide (ARTKQTAR{K-me3}STGG{K-FAM})
percent quenching of W358 fluorescence [1]: 50%

ARTKQTARKSTGGK (trimethyl-lysine at K9; FAM (fluorescein) on K14) [H3K9me3^(FAM) peptide (ARTKQTAR{K-me3}STGG{K-FAM})]
binding result [2]: binds
binding result [3]: binds
binding result [4]: binds

B1
binding result [5]: binds
binding result [6]: binds

B2: GST-UHRF1^(PHD; 337A) (domain or fragment, human (by the printed accession), UniProt Q96T88-1 298-366, looked up)
chain: SGPSCKHCKDDVNRLCRVCACHLCGGRQDPDKQLMCDECAMAFHIYCLDPPLSSVPSEDEWYCPECRND
fold impairment of binding against GST-UHRF1^PHD [7]: ~12 fold

ARTKQTARKSTGGKW (trimethyl-lysine at K9; biotin on K14) [H3K9me3^(Biotin) peptide (ARTKQTAR{K-me3}STGG{K-biotin}W)]
binding result [8]: binds

ARTKQTARKSTGGKW (trimethyl-lysine at K9) [H3K9me3 peptide (unlabeled; ARTKQTAR{K-me3}STGGKW)]
binding result [8]: binds

{FAM}-GKGKWKRKSAGGGPS [PBR^(FAM) peptide ({G-FAM}KGKWKRKSAGGGPS; UHRF1 polybasic region, residues 643-657)]
binding result [4]: binds
